Consider 140 substances from the supplement of paper PMC12042874.

± gives the uncertainty stated by the source.

The nature of the series: amyloid nucleation score (Sup35N fusion, yeast selection) (log enrichment); library NNK2; higher = more nucleation; inactive = no reads after selection. The essentials:
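Random libraries were run with three technical output replicates. In each, psi-negative yeast expressing Sup35N fused to peptides of 20 random codons were induced 24 hours with 100 μM copper sulfate and grown 7 days at 30°C on medium lacking adenine and uracil, and input and output plasmid inserts were Illumina-sequenced. The nucleation score is the DiMSum log enrichment of output over input reads, centred on the mode score of non-aggregating sequences, and sequences under 100 input reads were excluded.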
Consider VSVIGKFSFHPKRMRG, for which the amyloid nucleation score was -0.481 ± 0.39.
Under RLYWVGGATGRFD stands 2.02 ± 0.19; under PYNLVGLGLFSPAGF, -0.849 ± 0.61.
Under KILNCTGSQVKS stands -0.032 ± 0.25; under YSTRRLGHLMC, -0.381 ± 0.79; under QDRGHSVL, “inactive”.
IKVNCIEYYHSLRSRFDTSA came in with an amyloid nucleation score of 0.065 ± 1.1.
Consider IFNVKRGILVTSVFDNVQVW, for which the amyloid nucleation score entry was “inactive”.
Under LVRTLAYCASKNNFVRL stands -0.038 ± 0.63; under AYRLGFNVMLTDAVVARDIL, 0.512 ± 0.66; under IDDDHLEHEVNGSRRCKMRW, -0.055 ± 1.1.
The figure for EFNYHVQRSLFSR is 0.285 ± 0.65; for LQVLARVDRLSHPGR it is 0.636 ± 0.81.
Under ARCTKINLGPYRGSINSLFW stands “inactive”; under NCDRPTLEMSVNRRLFSCPE, 0.54 ± 0.27.
Substance GNGLFSVFYIFYAAGKRSVC returned an amyloid nucleation score of 0.394 ± 0.62.
The figure for RITWFVIFIHCCKGLIR is -0.369 ± 0.54; for WYFIGKCRDGVSDGMRNNVR it is 0.148 ± 0.22; for FLIKAKGFYSSLLATGGIEK it is “inactive”.
The figure for FTNIGSEYDMTGLNEGSSMP is -0.411 ± 0.29; for SSSWLCYTSFWYVNHSRRSL it is 8.051 ± 0.043.
Consider RSSKTNWWTGEISVPYGYWM, for which the amyloid nucleation score was determined as 0.368 ± 0.47.
The figure for TAKHDYFLSEESRRLYSSKY is 2.31 ± 0.063.
The figure for VYQMCFMAILVIRIVR is 0.439 ± 0.25.
Under DGDNNCMCS stands 0.404 ± 0.48.
On to VIEIWSN, for which the amyloid nucleation score was -0.531 ± 1.1.
SNMIHDEIWLMGEDSDF yielded an amyloid nucleation score of 0.674 ± 0.49.
The figure for TDDMCYSEMYIRCVRLFEIV is 2.34 ± 0.11; for FISTGRHTICDIVAHNADLF it is -0.305 ± 0.8; for IIHTWLWTHRSIR it is -0.406 ± 0.5.
The figure for YVRMMTNSTLLGRGLKYLCV is 0.429 ± 0.62; for HSYITG it is 0.018 ± 0.19.
The figure for YTQAYILVLIVLLLLSVMVI is 5.638 ± 0.054; for FEDFLCFSGMRFVFELCADT it is -0.917 ± 0.78.
For WGNILW, the amyloid nucleation score result was “inactive”.
The figure for RVNNLLEKEGTSYGEFAYGL is 0.182 ± 0.45; for LLKTSASCIMHGEKQKWMLA it is 0.671 ± 0.64; for SFFQESHKRIDRVYKYGMGS it is -0.96 ± 0.28.
The figure for GMKSFR is -1.68 ± 1.1; for IDDCVKGKTPGNSGNMFCLP it is -1.06 ± 0.42.
Under KRYTHRCKPFTLHHLPVDAR stands 1.25 ± 0.33; under RWTLWFEGRLERLVAIIS, -0.133 ± 1.
As to LLGSLLIFPMES, the amyloid nucleation score was -1.52 ± 0.78.
As for TLLDKLK, the amyloid nucleation score entry is “inactive”.
Under VNIFVLLYLYVWNASIVITF stands -0.221 ± 1.1; under VSMLISTTPAYIIRQFKGLW, 1.09 ± 0.68.
Under LLFCKPDAHFVLCSFYPLML stands “inactive”; under KTFTPSIELGYMGHCDCDT, -1.03 ± 0.45; under EELAPSCAEDEILILSMLIN, -0.592 ± 0.76.
As for TTVDSNIRAYIFKVARYHYK, the amyloid nucleation score was -0.488 ± 1.
The figure for GSVFSKHQGSFVFSLQQLGL is -1.43 ± 0.34; for GGWLYANGEYWWSTG it is 1.53 ± 0.58.
Substance VNYLPWLWSMCNRVH had an amyloid nucleation score of -0.943 ± 0.61.
The figure for KRDRIAFPMEIDDIIKAWM is -0.929 ± 0.55.
The figure for FYRGSQVMPR is -0.647 ± 1.1; for NVRMSGLF it is 2.67 ± 0.14.
The entry for IDRGTFVLGFYRYKYNYFFK is “inactive”; for GKLLLFSSWGRA it is 0.083 ± 0.44; for ASVCHTLVGILYDDEGARTR it is 0.85 ± 0.4.
The substance RDQRLCV came in with an amyloid nucleation score of -1.18 ± 1.1.
Under TMILKWESRCERGPGEVRLV stands 6.204 ± 0.052.
CVNITYI: the amyloid nucleation score amounted to 4.625 ± 0.031.
Under EEWNRRANMGFLNYFETHGG stands -1.14 ± 1; under WKVVSEIWIMGTSSTFVTDH, 1.11 ± 0.12; under ISLSHWGQTIPLRSFLLNRL, 0.432 ± 0.53.
The figure for TWMSYFVHVSVGFLVYYLYI is -0.919 ± 1; for DSGLMSFVCNVDPKCVCFVN it is 7.968 ± 0.075.
SSEEFNVCYYGDPYKSVRTR came in with an amyloid nucleation score of 0.341 ± 0.47.
Under IYRGESIIWVNNSWIEDSLR stands 1.56 ± 0.12; under LRHDR, 0.43 ± 0.32; under RMLRKSNGS, 0.066 ± 0.3.
Take HGTNTRADYFCIYPHGNG: the amyloid nucleation score was -0.281 ± 0.37.
Substance LCSSKETDMPFLVLQSLKSN yielded an amyloid nucleation score of -0.791 ± 0.78.
The figure for DRYVSV is 0.455 ± 0.43.
Under STILTSVFMFWVCGCFNNKT stands 7.03 ± 0.078.
VIFVVNIFHLYWLRVC: the amyloid nucleation score was 0.748 ± 0.58.
The figure for RFCWAMYNGFPHK is 4.33 ± 0.059.
Under FIAFFSWFFGWWRKMQAQAL stands “inactive”.
The figure for MMDRV is -0.092 ± 0.65; for SGNIAMFVPSVRWSVRDYCC it is 1.06 ± 0.14.
For the substance YVIVTDFYYNMVRVVFVRMA, the amyloid nucleation score came to 0.228 ± 1.
YPFLIS displayed an amyloid nucleation score of -0.922 ± 1.
The figure for AGAHVVKAIHFSLYGNEGLT is 0.6 ± 0.74; for DFINIPSVFIIYMK it is 1.73 ± 0.13.
Under NMFGLPKLVLSDLVVRV stands 1.72 ± 0.15; under WVLDVSFTVVFKMIHGVVSL, 3.9 ± 0.14; under KSLDYFSECRDSPNML, -0.757 ± 0.48.
The figure for TMYYRNRGLVSEPKNYNGNE is -0.246 ± 0.61; for CGNLSCPVGVCGIFRRPSTG it is “inactive”; for LVSKSERER it is 5.451 ± 0.053.
As to FDLNYPSVSIIGKVLCSGPV, the amyloid nucleation score result is “inactive”.
The figure for SRYGRTEGRFFVRRRGMHHG is 0.21 ± 0.32.
With QTTDNFIVKHALCNVA, the amyloid nucleation score was -0.622 ± 0.34.
Under TGCTFCKSMCLYGETSRKDN stands 0.132 ± 0.36; under GQDITDTFTLNCSRGFTCIR, 0.091 ± 0.34.
Under SDYHLFTYTLGINSTLDGRV stands -1.3 ± 0.38; under YKLGTRMSECLRNNVLDSSS, “inactive”; under LFRLSCIALCVGIIIVSDGV, -0.33 ± 0.79.
Under LFTEISKYQVYGVYWTALFE stands -0.137 ± 1.1; under FVEIIAKWILTI, 0.033 ± 0.6; under YFMLPLYMMLLGYFYKTICS, 6.933 ± 0.067.
The substance DVQWTGPRPFPFV had an amyloid nucleation score of 0.679 ± 0.4.
The figure for CCCLSKHSNECGLRMDRPFT is 0.909 ± 0.6.
The figure for AKLRHWDCHFTR is 0.405 ± 0.2; for LVNVIS it is 0.2 ± 0.35.
In turn, MNLSGVQVAMFSSQPVALTG displayed an amyloid nucleation score of 0.097 ± 0.63.
Under IYLQGAGLL stands “inactive”; under GFSIVNQDWYS, 0.675 ± 0.35; under YSFGVQC, 0.067 ± 0.25.
Under YNQSMYFRVLGFYTYPSDRG stands 2.32 ± 0.07.
Under VWPLNYYGWKTNMSSCFHST stands -1.1 ± 1.1; under GSSRLCRQYAVNFFDCHMYD, 4.78 ± 0.056; under HYRSFVDFITGWLVSFATEP, 4.28 ± 0.054.
RDPSTELMISRLARTESCGT gave an amyloid nucleation score of 4.94 ± 0.065.
Under GASVVDKSSRPCGAILEHSG stands 0.894 ± 0.74; under RCLSKVLSLL, -1.72 ± 0.54; under AGCGIPALTYNNRRAKTHAQ, 0.901 ± 0.53.
Under LRSFM stands -0.591 ± 0.5; under KSVQDNDMSPACRAD, 0.804 ± 0.45; under TSLGGWVLERRCLPDAADMR, 1.2 ± 0.31.
Under LFKRGIVGDRGTKG stands -0.905 ± 0.48; under YTTYGHTSHLTLYPYTPRMM, 0.123 ± 0.74; under TISIFGM, -0.325 ± 0.33.
QCVQRHALRVG had an amyloid nucleation score of 4.31 ± 0.12.
With QSRSRIGFGQCGRFGTAWWV, the amyloid nucleation score was 0.605 ± 0.45.
Under FDVKGRISLNRYSINFNARL stands 5.11 ± 0.073; under LVSYQVFSWSEPENSV, -0.239 ± 0.79; under KRTWRFFYRL, “inactive”.
For KAKWFNFLFYNFLQYACLSQ, the amyloid nucleation score came out at 1.37 ± 0.087.
Under VFSPFQFNFWWSFCVNFALV stands 4.367 ± 0.035; under VKRYDS, “inactive”; under FCWRYNSKIRLKHGQDSGPR, -0.343 ± 0.33.
Under CLKFFADGSQAGCSERAGLR stands 0.041 ± 0.28; under PAIHVVDTRVGWRHSMSGYS, 1.72 ± 0.15; under AHCIFVLDGAKFRLWCLGSG, 1.11 ± 0.41.
For the substance MSSPD, the amyloid nucleation score is 6.596 ± 0.034.
Under SYYSNSLVGDFPVPISNSVM stands -0.249 ± 1.1; under GGLAGWSGWNTQDELGCGTT, 0.775 ± 0.4; under FFHYVNAQVRGWLCTVYIIR, -0.574 ± 0.55.
CYFNARSDSVNVYVV yielded an amyloid nucleation score of -0.029 ± 1.1.
